Among the data in publication PMC5004352 are stoichiometry N values, retold here.

The experiment has as its target SoPIP2;1 wild type (Spinacia oleracea). The experiment is described as follows: SDS-PAGE (SDS-resistant oligomers); purified protein mixed with SDS sample loading buffer (125 mM Tris-HCl pH 6.8, 20% glycerol, 4% SDS), 10 min at room temperature, 12% gel, Coomassie; WT also pre-incubated with DTT or β-mercaptoethanol for varying times; WT against mutants with 10% β-mercaptoethanol in the loading buffer; monomer to dimer.

A word on the stoichiometry N: it is a count of units in the complex or per binding partner. For the substance SoPIP2;1 wild type (natural protein), the stoichiometry N was determined as 2.
